Data: patent US20240279350A1 (Sanofi, published 2024)
Positions count from the first letter of the chain named. Numbers in names are those of the source. Blank lines part the entries; values can stand above or below the binder they belong to.

Experiments:
human CD40 on cells [1] = target: T1, human CD40 on cells (human, UniProt P25942 21-277); assay: cell-based or functional assay
[2] = target: rhesus CD40 on HEK293H reporter cells (rhesus, UniProt F6SNI1 21-278); assay: cell-based or functional assay
recombinant human CD40 = target: T2, recombinant human CD40 (human, UniProt P25942 21-193); assay: SPR (Biacore 8K+), antibody captured on protein A/G, recombinant hCD40 as analyte, 1:1 model
T2 construct: Soluble analyte in SPR; also called Recombinant hCD40; hCD40
T2 sequence (P25942 21-193 limits assumed): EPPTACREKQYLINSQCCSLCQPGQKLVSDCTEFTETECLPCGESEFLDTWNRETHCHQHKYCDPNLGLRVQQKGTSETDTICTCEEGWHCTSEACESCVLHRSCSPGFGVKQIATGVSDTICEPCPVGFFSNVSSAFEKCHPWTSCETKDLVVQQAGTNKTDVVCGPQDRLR
Experimental: Protein A/G was immobilized to the surface of a CM5 series S chip using amine chemistry. Test compounds were then captured to the surface between 120 RU and 170 RU. Recombinant hCD40 was diluted 2-fold from 300 nM to 2.34 nM in HBS-EP+buffer. […] Glycine (10 mM) pH 1.5 was used to regenerate the chip surface. The binding affinity (KD) was determine using a 1:1-binding model by a global fit of all the concentrations.

human CD40 on cells [3] = target: T1, human CD40 on cells; assay: flow cytometry on human primary naive B-cells, 1 h at 4 °C, AF488-conjugated secondary antibody (MFI)
Experimental: (§1) Naive B-cell were plated at a density of […] cells per well in 96-well plates and incubated with CD40 agonists, hexameric ligand and anti-CD40 antibodies, for 1 hour at 4° C.

[4] = target: T3, cynomolgus CD40 on HEK293 cells (cynomolgus, UniProt G7PG38 21-278); assay: flow cytometry on cynomolgus CD40-expressing HEK293 cells, 1 h at 4 °C, AF488-conjugated secondary antibody (MFI)
T3 construct: whole, on cells; also called cyno CD40; cynoCD40-expressing HEK293 cells
Experimental: Cyno CD40-expressing HEK293 cells were plated at a density of 50×10³ cells per well in 96-well plates and incubated with serially diluted concentrations of CD40 agonists, hexameric ligand and anti-CD40 antibodies, for 1 hour at 4° C. Cells were then harvested and incubated with AF488-conjugated secondary antibody before flow cytometry analysis using a Fortessa X20.
Data from the flow cytometer was analyzed using FlowJo (V10.8.1), then the binding curves, the Eₘₐₓ, and EC₅₀ values were plotted using GraphPad Prism (V9.1.2).

human CD40 on cells [5] = target: T1, human CD40 on cells; assay: cell-based or functional assay; remark: listed apart in the source
human CD40 on cells [6] = target: T1, human CD40 on cells; assay: cell-based or functional assay; remark: listed apart in the source
human CD40 on cells [7] = target: T1, human CD40 on cells; assay: flow cytometry on human primary naive B-cells, 1 h at 4 °C, AF488-conjugated secondary antibody (MFI); remark: listed apart in the source
Experimental: as §1

human CD40 on cells [8] = target: T1, human CD40 on cells; assay: flow cytometry on U-2 OS/NFκB cells (further experiment), APC-conjugated anti-human IgG secondary antibody (median fluorescence intensity)
Experimental: (§2) Briefly, cultured U-2 OS/NFκB cells were seeded in 96-well plates at 1.0×10⁵ cells/well and incubated with serially-diluted test antibodies for 60 minutes at 4° C. in 2% FBS/dPBS buffer. The cells were then washed twice with dPBS and further incubated with secondary allophycocyanin (APC)-conjugated AffiniPure F(ab′)₂ fragment donkey anti-human IgG (H+L) antibody (Jackson ImmunoResearch, Ref. 709-136-149) (1:500) for 30 minutes at 4° C. Finally, the cells were washed twice with dPBS and suspended in FACS buffer for flow cytometry analysis. MFI values vs concentrations were analyzed by FlowJo and data were further fitted with four-parameter non-linear regression to get EC₅₀ values by GraphPad Prism software.

human CD40 on cells [9] = target: T1, human CD40 on cells; assay: cell-based or functional assay; remark: listed apart in the source
human CD40 on cells [10] = target: T1, human CD40 on cells; assay: cell-based or functional assay; remark: listed apart in the source
human CD40 on cells [11] = target: T1, human CD40 on cells; assay: flow cytometry on U-2 OS/NFκB cells
Experimental: as §2

human CD40 on cells [12] = target: T1, human CD40 on cells; assay: flow cytometry on Raji cells; EC50 relative to mAb1
Experimental: as §2, with “Raji” for “cultured U-2 OS/NFκB”

human CD40 on cells [13] = target: T1, human CD40 on cells; assay: flow cytometry on U-2 OS/NFκB cells; EC50 relative to mAb1
Experimental: as §2

human CD40 on cells [14] = target: T1, human CD40 on cells; assay: flow cytometry on Raji cells; binding to Raji cells, flow cytometry
Experimental: as §2, with “Raji” for “cultured U-2 OS/NFκB”

human CD40 on cells [15] = target: T1, human CD40 on cells; assay: flow cytometry on Raji cells
Experimental: as §2, with “Raji” for “cultured U-2 OS/NFκB”

T1 sequence (P25942 21-277 limits assumed): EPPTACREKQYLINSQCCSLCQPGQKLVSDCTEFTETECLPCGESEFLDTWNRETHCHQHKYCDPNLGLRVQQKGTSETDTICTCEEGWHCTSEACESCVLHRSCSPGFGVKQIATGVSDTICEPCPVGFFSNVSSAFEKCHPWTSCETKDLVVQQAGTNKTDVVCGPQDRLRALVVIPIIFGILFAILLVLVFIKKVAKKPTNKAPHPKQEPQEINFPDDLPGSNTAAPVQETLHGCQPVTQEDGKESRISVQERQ

B1: mAb3 (Y32K) (antibody, human IgG2, kappa, V domains shown)
VH: QVQLVQSGAEVKKPGASVKVSCKASGYTFTGKYMHWVRQAPGQGLEWMGWINPDSGGTNYAQKFQGRVTMTRDTSISTAYMELNRLRSDDTAVYYCARDQPLGYCTNGVCSYFDYWGQGTLVTVSS
VL: DIQMTQSPSSVSASVGDRVTITCRASQGIYSWLAWYQQKPGKAPNLLIYTASTLQSGVPSRFSGSGSGTDFTLTISSLQPEDFATYYCQQANIFPLTFGGGTKVEIKR
notes: Mutant of AbC1 with the same constant regions (IgG2)
EC50, NFkB-luciferase reporter assay, human NFkB-Luc2P/U-2 OS cells (human CD40 on cells [1]): 0.44 nM | Top, NFkB-luciferase reporter assay, human NFkB-Luc2P/U-2 OS cells (human CD40 on cells [1]): 48.9 nM | EC50, luciferase reporter assay, HEK293H rhesus CD40 reporter cells [2]: 0.59 nM | Top, luciferase reporter assay, HEK293H rhesus CD40 reporter cells [2]: 3.54 nM | Kd (recombinant human CD40): 91 nM | koff (recombinant human CD40): 0.0041 s⁻¹ | kon (recombinant human CD40): 45000 M⁻¹ s⁻¹ | EC50 (read off the curve) (human CD40 on cells [3]): ~5 nM | EC50 (read off the curve) [4]: ~2 nM

B3: mAb1 (Y32K/S77A) (antibody, human IgG2, kappa)
heavy: QVQLVQSGAEVKKPGASVKVSCKASGYTFTGKYMHWVRQAPGQGLEWMGWINPDSGGTNYAQKFQGRVTMTRDTSIATAYMELNRLRSDDTAVYYCARDQPLGYCTNGVCSYFDYWGQGTLVTVSSASTKGPSVFPLAPCSRSTSESTAALGCLVKDYFPEPVTVSWNSGALTSGVHTFPAVLQSSGLYSLSSVVTVPSSNFGTQTYTCNVDHKPSNTKVDKTVERKCCVECPPCPAPPVAGPSVFLFPPKPKDTLMISRTPEVTCVVVDVSHEDPEVQFNWYVDGVEVHNAKTKPREEQFNSTFRVVSVLTVVHQDWLNGKEYKCKVSNKGLPAPIEKTISKTKGQPREPQVYTLPPSREEMTKNQVSLTCLVKGFYPSDIAVEWESNGQPENNYKTTPPMLDSDGSFFLYSKLTVDKSRWQQGNVFSCSVMHEALHNHYTQKSLSLSPGK
light: DIQMTQSPSSVSASVGDRVTITCRASQGIYSWLAWYQQKPGKAPNLLIYTASTLQSGVPSRFSGSGSGTDFTLTISSLQPEDFATYYCQQANIFPLTFGGGTKVEIKRTVAAPSVFIFPPSDEQLKSGTASVVCLLNNFYPREAKVQWKVDNALQSGNSQESVTEQDSKDSTYSLSSTLTLSKADYEKHKVYACEVTHQGLSSPVTKSFNRGEC
notes: Mutant of AbC1 with the same constant regions (IgG2); also called mAb1 double mutant; mAb1 (without masking moiety)
EC50, NFkB-luciferase reporter assay, human NFkB-Luc2P/U-2 OS cells (human CD40 on cells [1]): 0.52 nM | Top, NFkB-luciferase reporter assay, human NFkB-Luc2P/U-2 OS cells (human CD40 on cells [1]): 53.6 nM | EC50, luciferase reporter assay, HEK293H rhesus CD40 reporter cells [2]: 0.49 nM | Top, luciferase reporter assay, HEK293H rhesus CD40 reporter cells [2]: 3.91 nM | EC50, luciferase reporter assay in U-2 OS/NFκB cells (human CD40 on cells [9]): 0.238 nM | Relative masking efficacy, luciferase reporter assay in U-2 OS/NFκB cells (human CD40 on cells [9]): 1 fold | EC50, CD86 expression, primary human B-cell activation assay (human CD40 on cells [10]): 0.175 nM | Relative masking efficacy, CD86 expression, primary human B-cell activation assay (human CD40 on cells [10]): 1 fold | EC50, CD83 expression, B-cells of hCD40 KI mice (human CD40 on cells [5]): 0.051 nM | EC50, CD86 expression, B-cells of hCD40 KI mice (human CD40 on cells [5]): 0.031 nM | Relative masking efficacy, CD83 expression, B-cells of hCD40 KI mice (human CD40 on cells [5]): 1 fold | Relative masking efficacy, CD86 expression, B-cells of hCD40 KI mice (human CD40 on cells [5]): 1 fold | EC50, CD83 expression, MoDC maturation assay (human CD40 on cells [6]): 0.49 nM | EC50, IL-8 release, MoDC maturation assay (human CD40 on cells [6]): 0.21 nM | EC50 (human CD40 on cells [11]): 1.5 nM | Relative masking efficacy (human CD40 on cells [12]): 1 fold | Relative masking efficacy (human CD40 on cells [13]): 1 fold | EC50 (human CD40 on cells [14]): 1.34 nM | Kd (recombinant human CD40): 65 nM | koff (recombinant human CD40): 0.0034 s⁻¹ | kon (recombinant human CD40): 52000 M⁻¹ s⁻¹ | EC50 (read off the curve) (human CD40 on cells [7]): ~2 nM | EC50 (read off the curve) [4]: ~2 nM | EC50 (read off the curve) (human CD40 on cells [8]): ~2 nM

B4: MC4 (masked mAb1 comprising MM2 and CL2) (antibody, human IgG2, kappa)
heavy: B3 heavy
light: EVGSYYVCPVRFQYFCEESGRSAGGGGPLGLAGSGGSDIQMTQSPSSVSASVGDRVTITCRASQGIYSWLAWYQQKPGKAPNLLIYTASTLQSGVPSRFSGSGSGTDFTLTISSLQPEDFATYYCQQANIFPLTFGGGTKVEIKRTVAAPSVFIFPPSDEQLKSGTASVVCLLNNFYPREAKVQWKVDNALQSGNSQESVTEQDSKDSTYSLSSTLTLSKADYEKHKVYACEVTHQGLSSPVTKSFNRGEC
notes: Conditionally-active (masked) antibody
EC50, luciferase reporter assay in U-2 OS/NFκB cells (human CD40 on cells [9]): 45.8 nM | Relative masking efficacy, luciferase reporter assay in U-2 OS/NFκB cells (human CD40 on cells [9]): 193 fold | EC50, CD86 expression, primary human B-cell activation assay (human CD40 on cells [10]): 14.7 nM | Relative masking efficacy, CD86 expression, primary human B-cell activation assay (human CD40 on cells [10]): 84 fold | EC50, CD83 expression, B-cells of hCD40 KI mice (human CD40 on cells [5]): 1.24 nM | EC50, CD86 expression, B-cells of hCD40 KI mice (human CD40 on cells [5]): 1.05 nM | Relative masking efficacy, CD83 expression, B-cells of hCD40 KI mice (human CD40 on cells [5]): 24.3 fold | Relative masking efficacy, CD86 expression, B-cells of hCD40 KI mice (human CD40 on cells [5]): 33.8 fold | EC50, CD83 expression, MoDC maturation assay (human CD40 on cells [6]): 17.2 nM | EC50, IL-8 release, MoDC maturation assay (human CD40 on cells [6]): 12.2 nM | EC50 (human CD40 on cells [15]): 143 nM | EC50 (human CD40 on cells [11]): 176 nM | Relative masking efficacy (human CD40 on cells [12]): 107 fold | Relative masking efficacy (human CD40 on cells [13]): 118 fold

B5: mAb4 (Y32R) (antibody, human IgG2, kappa, V domains shown)
VH: B1 VH with K32R
VL: B1 VL
notes: as for B1
binding result (human CD40 on cells [3]): binds

Results, then the binder that gave them:

EC50, NFkB-luciferase reporter assay, human NFkB-Luc2P/U-2 OS cells (human CD40 on cells [1]): 1.43 nM | Top, NFkB-luciferase reporter assay, human NFkB-Luc2P/U-2 OS cells (human CD40 on cells [1]): 16.2 nM | EC50, luciferase reporter assay, HEK293H rhesus CD40 reporter cells [2]: 0.09 nM | Top, luciferase reporter assay, HEK293H rhesus CD40 reporter cells [2]: 1.91 nM | EC50, CD83 expression, B-cells of hCD40 KI mice (human CD40 on cells [5]): 0.034 nM | EC50, CD86 expression, B-cells of hCD40 KI mice (human CD40 on cells [5]): 0.011 nM | EC50, CD83 expression, MoDC maturation assay (human CD40 on cells [6]): 1.02 nM | EC50, IL-8 release, MoDC maturation assay (human CD40 on cells [6]): 1.92 nM | Kd (recombinant human CD40): 18 nM | koff (recombinant human CD40): 0.0019 s⁻¹ | kon (recombinant human CD40): 110000 M⁻¹ s⁻¹ | EC50 (read off the curve) (human CD40 on cells [7]): ~1 nM | EC50 (read off the curve) (human CD40 on cells [3]): ~4 nM | EC50 (read off the curve) [4]: ~1 nM | EC50 (read off the curve) (human CD40 on cells [8]): ~2 nM
B2: AbC1 (antibody, human IgG2, kappa, V domains shown)
VH: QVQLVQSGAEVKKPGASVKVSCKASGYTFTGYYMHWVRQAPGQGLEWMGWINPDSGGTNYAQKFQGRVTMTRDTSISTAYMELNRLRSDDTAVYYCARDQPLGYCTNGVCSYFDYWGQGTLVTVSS
VL: B1 VL
notes: Human IgG2; also called parental antibody; parental AbC1 antibody

EC50, NFkB-luciferase reporter assay, human NFkB-Luc2P/U-2 OS cells (human CD40 on cells [1]): 0.54 nM | Top, NFkB-luciferase reporter assay, human NFkB-Luc2P/U-2 OS cells (human CD40 on cells [1]): 45.2 nM | EC50 (read off the curve) (human CD40 on cells [7]): ~2 nM
B6: mAb2 (Y32K/S77P) (antibody, human IgG2, kappa, V domains shown)
VH: B1 VH with S77P
VL: B1 VL
notes: as for B1
